The subject of series [1] is HeLa Kyoto. Description: solubility change mitosis vs G1/S (difference of NP-40 vs SDS log2 ratios) (log2 ratio difference); higher = more soluble in mitosis.
Series [2] relates to HeLa Kyoto. Description: thermal stability score vs G1/S (z-score of summed log2 fold changes over temperatures); higher = more thermally stable than in G1/S.
Series [3] deals with HeLa Kyoto. Description: solubility in G1/S (NP-40 vs SDS abundance) (log2 ratio); higher = more soluble. The conditions noted are these: cell cycle stage: G1/S.
In series [4] the test system is HeLa Kyoto. Description: melting temperature (median over replicates), in situ; higher = more thermally stable.
The mark [5] stands for this setting: cell cycle stage: early G1 (4.5 h after nocodazole release).

The values below come from the supplement of paper PMC5998384.
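Wherever melting temperature (median over replicates), in situ is given: HeLa Kyoto cells synchronized by double thymidine or nocodazole block, proteins quantified by TMT10plex mass spectrometry, three independent biological replicates.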
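Wherever solubility change mitosis vs G1/S (difference of NP-40 vs SDS log2 ratios) is given: synchronized HeLa Kyoto cells (double thymidine block for G1/S, nocodazole release for mitosis), protein amounts in NP-40 versus SDS lysates quantified by mass spectrometry, three biological replicates.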
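Wherever solubility in G1/S (NP-40 vs SDS abundance) is given: HeLa Kyoto cells arrested at G1/S by double thymidine block, proteins quantified by TMT10plex mass spectrometry in mild NP-40 versus SDS extracts, three biological replicates.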
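Wherever thermal stability score vs G1/S (z-score of summed log2 fold changes over temperatures) is given: synchronized HeLa Kyoto cells, proteins quantified by TMT10plex mass spectrometry, three biological replicates, mitosis taken 0.5 h after nocodazole release, G1/S directly after double thymidine block.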

With “MSLWGLVSKMPPEKVQRLYVDFPQHLRHLLGDWLESQPWEFLVGSDAFCCNLASALLSDTVQHLQASVGEQGEGSTILQHISTLESIYQRDPLKLVATFRQILQGEKKAVMEQFRHLPMPFHWKQEELKFKTGLRRLQHRVGEIHLLREALQKGAEAGQVSLHSLIETPANGTGPSEALAMLLQETTGELEAAKALVLKRIQIWKRQQQLAGNGAPFEESLAPLQERCESLVDIYSQLQQEVGAAGGELEPKTRASLTGRLDEVLRTLVTSCFLVEKQPPQVLKTQTKFQAGVRFLLGLRFLGAPAKPPLVRADMVTEKQARELSVPQGPGAGAESTGEIINNTVPLENSIPGNCCSALFKNLLLKKIKRCERKGTESVTEEKCAVLFSASFTLGPGKLPIQLQALSLPLVVIVHGNQDNNAKATILWDNAFSEMDRVPFVVAERVPWEKMCETLNLKFMAEVGTNRGLLPEHFLFLAQKIFNDNSLSMEAFQHRSVSWSQFNKEILLGRGFTFWQWFDGVLDLTKRCLRSYWSDRLIIGFISKQYVTSLLLNEPDGTFLLRFSDSEIGGITIAHVIRGQDGSPQIENIQPFSAKDLSIRSLGDRIRDLAQLKNLYPKKPKDEAFRSHYKPEQMGKDGRGYVPATIKMTVERDQPLPTPELQMPTMVPSYDLGMAPDSSMSMQLGPDMVPQVYPPHSHSIPPYQGLSPEESVNVLSAFQEPHLQMPPSLGQMSLPFDQPHPQGLLPCQPQEHAVSSPDPLLCSDVTMVEDSCLSQPVTAFPQGTWIGEDIFPPLLPPTEQDLTKLLLEGQGESGGGSLGAQPLLQPSHYGQSGISMSHMDLRANPSW [STAT6]”, the “solubility change mitosis (log2)” value in the series with HeLa Kyoto [1] is -0.111. Moreover, the thermal stability score in the series with HeLa Kyoto [2] (setting [5]) is 0.798; with HeLa Kyoto [2] (cell cycle stage: mitosis), 2.24. The “solubility in G1/S (log2)” value in the series on HeLa Kyoto [3] amounted to 0.0515. For the same substance, the melting temperature with HeLa Kyoto [4] (cell cycle stage: G1/S) came out at 48.4 °C; with HeLa Kyoto [4] (cell cycle stage: mitosis), 49.6 °C.
As to “MGCDGGTIPKRHELVKGPKKVEKVDKDAELVAQWNYCTLSQEILRRPIVACELGRLYNKDAVIEFLLDKSAEKALGKAASHIKSIKNVTELKLSDNPAWEGDKGNTKGDKHDDLQRARFICPVVGLEMNGRHRFCFLRCCGCVFSERALKEIKAEVCHTCGAAFQEDDVIMLNGTKEDVDVLKTRMEERRLRAKLEKKTKKPKAAESVSKPDVSEEAPGPSKVKTGKPEEASLDSREKKTNLAPKSTAMNESSSGKAGKPPCGATKRSIADSEESEAYKSLFTTHSSAKRSKEESAHWVTHTSYCF [RTFDC1]”, the “solubility change mitosis (log2)” value in the series on HeLa Kyoto [1] was -0.0475. The thermal stability score with HeLa Kyoto [2] (setting [5]) is 1.24; in the series with HeLa Kyoto [2] (cell cycle stage: mitosis) it was 2.61. The “solubility in G1/S (log2)” value in the series with HeLa Kyoto [3] was 0.0863. The melting temperature in the series on HeLa Kyoto [4] (cell cycle stage: G1/S) stood at 47.6 °C; in the series on HeLa Kyoto [4] (cell cycle stage: mitosis), 50.2 °C.
In the case of “MAEQEPTAEQLAQIAAENEEDEHSVNYKPPAQKSIQEIQELDKDDESLRKYKEALLGRVAVSADPNVPNVVVTGLTLVCSSAPGPLELDLTGDLESFKKQSFVLKEGVEYRIKISFRVNREIVSGMKYIQHTYRKGVKIDKTDYMVGSYGPRAEEYEFLTPVEEAPKGMLARGSYSIKSRFTDDDKTDHLSWEWNLTIKKDWKD [ARHGDIA]”, the “solubility change mitosis (log2)” value with HeLa Kyoto [1] was -0.109. The thermal stability score was 0.408 in the series on HeLa Kyoto [2] (setting [5]) and -2.01 with HeLa Kyoto [2] (cell cycle stage: mitosis). Besides, in the series on HeLa Kyoto [3], the “solubility in G1/S (log2)” value amounted to 0.25. For the same substance, the melting temperature with HeLa Kyoto [4] (cell cycle stage: G1/S) amounted to 51.5 °C; in the series with HeLa Kyoto [4] (cell cycle stage: mitosis), 51.7 °C.
With ABCC2, the “solubility change mitosis (log2)” value with HeLa Kyoto [1] was -0.0305. Besides, the thermal stability score in the series on HeLa Kyoto [2] (setting [5]) is 0.294; in the series on HeLa Kyoto [2] (cell cycle stage: mitosis) it was -0.626. In addition, the “solubility in G1/S (log2)” value with HeLa Kyoto [3] was -0.128. Also, the melting temperature in the series on HeLa Kyoto [4] (cell cycle stage: G1/S) and in the series with HeLa Kyoto [4] (cell cycle stage: mitosis) was 51.6 °C in each case.
“MCDIEEATNQLLDVNLHENQKSVQVTESDLGSESELLVTIGATVPTGFEQTAADEVREKLGSSCKISRDRGKIYFVISVESLAQVHCLRSVDNLFVVVQEFQDYQFKQTKEEVLKDFEDLAGKLPWSNPLKVWKINASFKKKKAKRKKINQNSSKEKINNGQEVKIDQRNVKKEFTSHALDSHILDYYENPAIKEDVSTLIGDDLASCKDETDESSKEETEPQVLKFRVTCNRAGEKHCFTSNEAARDFGGAVQDYFKWKADMTNFDVEVLLNIHDNEVIVGIALTEESLHRRNITHFGPTTLRSTLAYGMLRLCDPLPYDIIVDPMCGTGAIPIEGATEWSDCFHIAGDNNPLAVNRAANNIASLLTKSQIKEGKPSWGLPIDAVQWDICNLPLRTGSVDIIVTDLPFGKRMGSKKRNWNLYPACLREMSRVCTPTTGRAVLLTQDTKCFTKALSGMRHVWRKVDTVWVNVGGLRAAVYVLIRTPQAFVHPSEQDGERGTLWQCKE [THUMPD3]”: the “solubility change mitosis (log2)” value with HeLa Kyoto [1] was -0.147. Also, the thermal stability score with HeLa Kyoto [2] (setting [5]) is -1; with HeLa Kyoto [2] (cell cycle stage: mitosis), -2.07. Moreover, the “solubility in G1/S (log2)” value with HeLa Kyoto [3] was determined as 0.109. Moreover, the melting temperature is 52.9 °C in the series with HeLa Kyoto [4] (cell cycle stage: G1/S) and 53 °C in the series with HeLa Kyoto [4] (cell cycle stage: mitosis).
As for “MSEDLAKQLASYKAQLQQVEAALSGNGENEDLLKLKKDLQEVIELTKDLLSTQPSETLASSDSFASTQPTHSWKVGDKCMAVWSEDGQCYEAEIEEIDEENGTAAITFAGYGNAEVTPLLNLKPVEEGRKAKEDSGNKPMSKKEMIAQQREYKKKKALKKAQRIKELEQEREDQKVKWQQFNNRAYSKNKKGQVKRSIFASPESVTGKVGVGTCGIADKPMTQYQDTSKYNVRHLMPQ [SMNDC1]”, the “solubility change mitosis (log2)” value in the series on HeLa Kyoto [1] was found to be 0.405. Also, the values for the thermal stability score in the series with HeLa Kyoto [2] (setting [5]) and in the series with HeLa Kyoto [2] (cell cycle stage: mitosis) were -2.66 and -6.93, respectively. In the series with HeLa Kyoto [3], the “solubility in G1/S (log2)” value came to 0.271. Besides, the melting temperature in the series with HeLa Kyoto [4] (cell cycle stage: G1/S) came to 57.7 °C; in the series with HeLa Kyoto [4] (cell cycle stage: mitosis), 55.9 °C.
